Experimental data: patent publication US20250186597A1, “TARGETED IMMUNE ACTIVATION WITH IL-18 IMMUNOCYTOKINES” (BRIGHT PEAK THERAPEUTICS AG, priority 2023, published 2025)

What was measured:
[1] = system: PD-1positive transduced NK-92 cells; test: IL-18BP mediated inhibition of IFN gamma secretion in PD-1 positive transduced NK-92 cells (Example 18); format: cell-based, human
Procedure: To characterize the resistance of anti-PD1-IL18 immunocytokines (IC) on PD-1 positive cells, the NK-92 cell line was used to generate a PD-1 expressing cell line and furthermore, to measure the inhibition of IFN[…] release upon incubation with IL-18 variants and ICs in the presence of increasing quantities of human IL-18BP.
On the day of experiment, parental PD-1^negative and PD-1^positive transduced cells were harvested and washed with PBS 1× and resuspended in medium (w/o IL-2) containing 1 ng/ml of recombinant human Interleukin-12 (SinoBiologicals, Cat #CT011-H08H). After counting, cells were seeded at 100 000 cells/well in a 384 well culture plate and incubated at 37° C./5% CO2. When indicated, cells were preincubated with anti-PD-1 antibody LZM-009 at 17 uM during 30 min at 37° C. […]
After 16-20 h incubation at 37° C./5% CO2, 5 μl of supernatant were carefully transferred to a 384 microwell OptiIPlate (Perkin Elmer; Cat #6007270) and Interferon-gamma (IFNγ) levels measured using the Human IFNγ AlphaLISA Assay Kit (Perkin Elmer, Cat #AL217C). […] AlphaLISA signal was then measured on an Enspire plate reader (Perkin Elmer) using 680 and 615 nm as excitation and emission wavelengths respectively. Half maximal inhibitory concentration (IC50) was calculated based on a variable slope, four parameter analysis using GraphPad PRISM software.

[2] = target: T1, human IL-18 Binding Protein (IL-18BP) (Homo sapiens, UniProt O95998); test: IL-18 Binding Protein alphaLISA assay (Example 12); conditions: human IL-18BP
T1 sequence (O95998 31-194): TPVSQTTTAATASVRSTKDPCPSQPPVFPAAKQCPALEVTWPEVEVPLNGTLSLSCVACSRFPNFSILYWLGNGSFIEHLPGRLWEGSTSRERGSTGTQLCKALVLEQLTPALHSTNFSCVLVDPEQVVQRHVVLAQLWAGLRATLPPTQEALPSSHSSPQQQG
Procedure: Wild type or modified IL-18 polypeptides samples were diluted at 5.6 μM in a solution of 1× alphaLISA Immunoassay Buffer provided in the alphaLISA IFNγ Detection kit and were diluted applying 3-fold serial dilutions down to […] in 384 deep well plates. A solution of 10 ng/ml of human IL-18BP-His was prepared with 1×alphaLISA Immunoassay Buffer. IL-18/IL-18BP complex formation was performed incubating 30 μl of IL-18BP solution to IL-18 sample titrations for 1 h at 20° C. IL-18BP standard was prediluted from stock solution supplied in alphaLISA IFNγ Detection kit at 100 ng/ml with 1×alphaLISA Buffer and titration prepared from applying 2-fold serial dilutions. The following solutions were prepared: a 50 μg/ml solution of anti-IL-18BP alphaLISA Acceptor beads, a 5 nM solution of biotinylated anti-IL18BP antibody and a 80 μg/ml light-protected solution of Streptavidin Donor beads in 1×alphaLISA Immunoassay Buffer. […]
5 μl of Biotinylated anti-IL-18BP antibody were added, followed by a short centrifugation step at 150 g, and incubated for 60 minutes at 20° C. under shaking at 750 rpm. […] AlphaLisa signal was then measured on an Enspire plate reader (Perkin Elmer) using 680 and 615 nm as excitation and emission wavelengths respectively. […]

B1: SEQ ID NO: 30: IL-18 polypeptide: E6K, V11I, C38A, K53A, T63A, C76A, C127A (protein)
chain: YFGKLKSKLSIIRNLNDQVLFIDQGNRPLFEDMTDSDARDNAPRTIFIISMYADSQPRGMAVAISVKCEKISTLSAENKIISFKEMNPPDNIKDTKSDIIFFQRSVPGHDNKMQFESSSYEGYFLAAEKERDLFKLILKKEDELGDRSIMFTVQNED
[1]; IL-18BP-mediated inhibition of IFNγ secretion, IL-18 analyte 1 nM
  IC50: 80.3 nM
[1]; NK-92 cells
  PD-1^pos/PD-1^neg IC50 ratio: 1.0
[2]
  Kd: 24.6 nM
